The target of the assay is short cTag (s-cTag) on a CD8α stalk (human). Kind of assay: flow cytometry on cells; 293T cells transiently transfected with the mimic constructs (co-expressed EGFP), stained with APC-conjugated streptavidin 48 hr later; MedFI of EGFP-positive cells; staining of cTag8 293T cells reversed by 1 mM biotin, 1 hr, room temperature.

Chain of streptavidin allophycocyanin (APC) (P22629 25-183): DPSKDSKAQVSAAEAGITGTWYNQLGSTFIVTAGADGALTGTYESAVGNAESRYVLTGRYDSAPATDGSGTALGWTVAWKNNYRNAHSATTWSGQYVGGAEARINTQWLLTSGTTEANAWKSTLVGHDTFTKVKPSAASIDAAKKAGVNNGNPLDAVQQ

Consider “streptavidin allophycocyanin (APC) (from UniProt P22629 25-183) (natural protein)”, for which the median fluorescence intensity (MedFI) is 10000.

For the origin of these results see PMC6258877.
